The test addresses T1, LOR-1 (lysyl oxidase related protein-1) (human, UniProt Q9Y4K0 26-774, limits assumed).
T1 construct: also called hLOR1
T1 sequence: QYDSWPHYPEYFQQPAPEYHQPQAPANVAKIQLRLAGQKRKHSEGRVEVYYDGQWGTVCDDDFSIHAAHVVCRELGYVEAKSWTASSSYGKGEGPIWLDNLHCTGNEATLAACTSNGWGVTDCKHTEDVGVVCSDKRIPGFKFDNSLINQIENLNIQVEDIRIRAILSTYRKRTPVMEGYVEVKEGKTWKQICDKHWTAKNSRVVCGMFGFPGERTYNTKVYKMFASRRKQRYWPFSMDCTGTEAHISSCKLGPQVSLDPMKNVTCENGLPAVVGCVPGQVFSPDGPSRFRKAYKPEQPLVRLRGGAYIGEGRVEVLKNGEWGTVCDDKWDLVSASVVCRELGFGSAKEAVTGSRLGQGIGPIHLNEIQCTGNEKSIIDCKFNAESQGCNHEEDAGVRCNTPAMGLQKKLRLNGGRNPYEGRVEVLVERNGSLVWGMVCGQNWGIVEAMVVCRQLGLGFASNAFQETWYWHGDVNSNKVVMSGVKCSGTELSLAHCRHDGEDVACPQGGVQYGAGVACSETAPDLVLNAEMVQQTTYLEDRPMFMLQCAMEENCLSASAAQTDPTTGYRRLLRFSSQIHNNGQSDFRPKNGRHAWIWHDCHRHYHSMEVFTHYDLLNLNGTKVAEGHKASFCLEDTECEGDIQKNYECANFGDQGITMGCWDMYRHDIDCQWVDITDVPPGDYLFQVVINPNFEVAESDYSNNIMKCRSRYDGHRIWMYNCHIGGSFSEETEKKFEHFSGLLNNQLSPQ
The experiment in a line: PF4 affinity column, 35S-methionine labeled cells, SDS-PAGE.

B1: Human recombinant platelet factor-4 (PF4, GenBank Accession number M20901) (ligand, UniProt P02776 32-101, looked up)
chain: EAEEDGDLQCLCVKTTSQVRPRHITSLEVIKAGPHCPTAQLIATLKNGRKICLDLQAPLYKKIIKKLLES
notes: Supplied by Repligen Corp
With B1, the binding result is listed as “binds”.

(Values after patent US20060127402A1 (TECHNION RESEARCH AND DEVELOPMENT FOUNDATION, published 2006).)
